# From publication PMC4336547 (Cellular and molecular life sciences : CMLS, 2011)
# T1: murine claudin-3 wild type, untagged (Cld3wt) (mouse), Q9Z0G9
# T1 chain: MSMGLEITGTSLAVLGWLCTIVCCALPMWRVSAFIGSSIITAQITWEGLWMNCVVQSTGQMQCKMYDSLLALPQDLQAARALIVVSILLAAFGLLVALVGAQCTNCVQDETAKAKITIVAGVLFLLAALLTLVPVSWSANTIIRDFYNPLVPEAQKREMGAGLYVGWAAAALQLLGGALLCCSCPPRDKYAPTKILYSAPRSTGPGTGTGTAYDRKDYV
# How the values were obtained:
# FRET or BRET = target: the molecule itself; test: FRET or BRET
# [1] = target: T1, murine claudin-3 wild type, untagged …; test: contact enrichment; conditions: remark: other sources report otherwise
percentage of contacts with EF > 1.5 (PE) [1] [%],Binder,mean FRET efficiency against the negative control Cld5/CRFR1 (FRET or BRET) [fold]
–,"mouse claudin-5 wild type, CFP or YFP fusion (Cld5wt-CFP / Cld5wt-YFP) (natural protein, UniProt O54942 1-218, looked up) MGSAALEILGLVLCLVGWVGLILACGLPMWQVTAFLDHNIVTAQTTWKGLWMSCVVQSTGHMQCKVYESVLALSAEVQAARALTVGAVLLALVALFVTLTGAQCTTCVAPGPVKARVALTGGALYAVCGLLALVPLCWFANIVVREFYDPTVPVSQKYELGAALYIGWAASALLMCGGGLVCCGAWVCTGRPEFSFPVKYSAPRRPTANGDYDKKNYV",10
91,"murine claudin-3 wild type, untagged (Cld3wt), Q9Z0G9 1-219 (natural protein) MSMGLEITGTSLAVLGWLCTIVCCALPMWRVSAFIGSSIITAQITWEGLWMNCVVQSTGQMQCKMYDSLLALPQDLQAARALIVVSILLAAFGLLVALVGAQCTNCVQDETAKAKITIVAGVLFLLAALLTLVPVSWSANTIIRDFYNPLVPEAQKREMGAGLYVGWAAAALQLLGGALLCCSCPPRDKYAPTKILYSAPRSTGPGTGTGTAYDRKDYV",–
